Substrate in the series: C[C@H](N)C(=O)N[C@@H](C)C(=O)O
Put plainly: proton-coupled uptake, pyranine fluorescence assay in proteoliposomes. As to conditions: valinomycin / potassium gradient driven membrane potential. Format: biochemical, Escherichia coli.

B1: DtpB (Escherichia coli K-12) (protein)
chain: MNTTTPMGMLQQPRPFFMIFFVELWERFGYYGVQGVLAVFFVKQLGFSQEQAFVTFGAFAALVYGLISIGGYVGDHLLGTKRTIVLGALVLAIGYFMTGMSLLKPDLIFIALGTIAVGNGLFKANPASLLSKCYPPKDPRLDGAFTLFYMSINIGSLIALSLAPVIADRFGYSVTYNLCGAGLIIALLVYIACRGMVKDIGSEPDFRPMSFSKLLYVLLGSVVMIFVCAWLMHNVEVANLVLIVLSIVVTIIFFRQAFKLDKTGRNKMFVAFVLMLEAVVFYILYAQMPTSLNFFAINNVHHEILGFSINPVSFQALNPFWVVLASPILAGIYTHLGNKGKDLSMPMKFTLGMFMCSLGFLTAAAAGMWFADAQGLTSPWFIVLVYLFQSLGELFISALGLAMIAALVPQHLMGFILGMWFLTQAAAFLLGGYVATFTAVPDNITDPLETLPVYTNVFGKIGLVTLGVAVVMLLMVPWLKRMIATPESH
What is called Km is the substrate concentration at which the rate is half of its maximum. Consider B1, for which the Km is 290 ± 40 µM.

These data come from article doi:10.1101/2023.02.14.528348v1.
